Reference: paper PMC4003566

Biological target: human α7 nAChR TM domain (human)
Assay: SEC-MALS

stoichiometry N: 5
Substance: human α7 nAChR TM domain (domain or fragment)
